In PMC6774351:

Biological target: Alexa488-labelled NLRP3 (human)
Assay: MST

Substance: NEK7 (wild type; NEK7 monomer) (from UniProt Q8TDX7 1-302) (enzyme)
- Kd: 78.9 nM
